From US20200325220A1 (published 2020)

Experiments:
Experiment in all cases: ELISA
αPD-1 = target: αPD-1
αSLAM = target: αSLAM
recombinant human GM-CSF = recombinant human GM-CSF (human, UniProt P04141 18-144)
Strep-tactin = target: Strep-tactin

Chain of recombinant human GM-CSF (P04141 18-144): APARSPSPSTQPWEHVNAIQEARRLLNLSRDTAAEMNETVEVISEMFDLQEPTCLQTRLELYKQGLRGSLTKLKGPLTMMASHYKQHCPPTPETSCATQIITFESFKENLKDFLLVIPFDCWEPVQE

| Binder | EC50 (αPD-1) | EC50 (αSLAM) | EC50 (recombinant human GM-CSF) | EC50 (Strep-tactin) |
| --- | --- | --- | --- | --- |
| C6b (antibody) heavy: not shown light: EIVLTQSPGTLSLSPGETAILSCRASQSVSSSLLAWYQQKPGQAPRLLIYGASNRATGIRGRFSGSGSGTDFTLTISRLEPEDFVLYYCQHYGSRVTFGQGTKLEIKRTVAAPSVFIFPPSDEQLKSGTASVVCLLNNFYPREAKVQWKVDNALQSGNSQESVTEQDSKDSTYSLSSTLTLSKADYEKHKVYACEVTHQGLSSPVTKSFNRGEC | ~1350 µg/mL | 0.0885 µg/mL | 0.0324 µg/mL |  |
| C5 (antibody) heavy: not shown light: EIVLTQSPGTLSLSPGETAILSCRASQSVSSSLLAWYQQKPGQAPRLLIYGASNRATGIRGRFSGSGSGTDFTLTISRLEPEDFVLYYCQHYGSRVTFGQGTKLEIKRTVAAPSVFIFPPSDEQLKSGTASVVCLLNNFYPREAKVQWKVDNALQSGNSQESVTEQDSKDSTYSLSSTLTLSKADYEKHKVYACEVTHQGLSSPVTKSFNRGEC | 0.0585 µg/mL | ~632 µg/mL | 0.0515 µg/mL |  |
| C6 (antibody) heavy: not shown light: EIVLTQSPGTLSLSPGETAILSCRASQSVSSSLLAWYQQKPGQAPRLLIYGASNRATGIRGRFSGSGSGTDFTLTISRLEPEDFVLYYCQHYGSRVTFGQGTKLEIKRTVAAPSVFIFPPSDEQLKSGTASVVCLLNNFYPREAKVQWKVDNALQSGNSQESVTEQDSKDSTYSLSSTLTLSKADYEKHKVYACEVTHQGLSSPVTKSFNRGEC | ~743 µg/mL | 0.0958 µg/mL |  |  |
| GCE536 (antibody) heavy: not shown light: EIVLTQSPGTLSLSPGETAILSCRASQSVSSSLLAWYQQKPGQAPRLLIYGASNRATGIRGRFSGSGSGTDFTLTISRLEPEDFVLYYCQHYGSRVTFGQGTKLEIKRTVAAPSVFIFPPSDEQLKSGTASVVCLLNNFYPREAKVQWKVDNALQSGNSQESVTEQDSKDSTYSLSSTLTLSKADYEKHKVYACEVTHQGLSSPVTKSFNRGEC |  |  | 0.0492 µg/mL |  |
| C5b (antibody) heavy: not shown light: EIVLTQSPGTLSLSPGETAILSCRASQSVSSSLLAWYQQKPGQAPRLLIYGASNRATGIRGRFSGSGSGTDFTLTISRLEPEDFVLYYCQHYGSRVTFGQGTKLEIKRTVAAPSVFIFPPSDEQLKSGTASVVCLLNNFYPREAKVQWKVDNALQSGNSQESVTEQDSKDSTYSLSSTLTLSKADYEKHKVYACEVTHQGLSSPVTKSFNRGEC | 0.0371 µg/mL | ~397 µg/mL | 0.0355 µg/mL |  |
| C9 (antibody, V domains shown) VH: DVQLVESGGGVVRPGVSLRLSCVASGFSFKNYDMAWVRQVPGKGLEWVCGINWNGSLRGYADSVKGRFLISRDHAKDSLYLQMSRLRAEDTALYYCARDPGYNTGRDHPYDLWGQGTMVTVSS VL: DIQMTQSPSTLSASVGDRVTITCRASQSISSWLAWYQQKPGKAPKLLIYKASSLGSGVPSRFSGSGSGTQFTLTISSLQPDDFATYYCQQYNNYPYTFGQGTKLEIKR |  |  |  | 0.187 µg/mL |
